The source of these data is IntAct's records for PubMed 16228008.

B1: E3 ubiquitin-protein ligase CBL-B (Homo sapiens), Q13191-1 (parent)
chain: MANSMNGRNPGGRGGNPRKGRILGIIDAIQDAVGPPKQAAADRRTVEKTWKLMDKVVRLCQNPKLQLKNSPPYILDILPDTYQHLRLILSKYDDNQKLAQLSENEYFKIYIDSLMKKSKRAIRLFKEGKERMYEEQSQDRRNLTKLSLIFSHMLAEIKAIFPNGQFQGDNFRITKADAAEFWRKFFGDKTIVPWKVFRQCLHEVHQISSGLEAMALKSTIDLTCNDYISVFEFDIFTRLFQPWGSILRNWNFLAVTHPGYMAFLTYDEVKARLQKYSTKPGSYIFRLSCTRLGQWAIGYVTGDGNILQTIPHNKPLFQALIDGSREGFYLYPDGRSYNPDLTGLCEPTPHDHIKVTQEQYELYCEMGSTFQLCKICAENDKDVKIEPCGHLMCTSCLTAWQESDGQGCPFCRCEIKGTEPIIVDPFDPRDEGSRCCSIIDPFGMPMLDLDDDDDREESLMMNRLANVRKCTDRQNSPVTSPGSSPLAQRRKPQPDPLQIPHLSLPPVPPRLDLIQKGIVRSPCGSPTGSPKSSPCMVRKQDKPLPAPPPPLRDPPPPPPERPPPIPPDNRLSRHIHHVESVPSRDPPMPLEAWCPRDVFGTNQLVGCRLLGEGSPKPGITASSNVNGRHSRVGSDPVLMRKHRRHDLPLEGAKVFSNGHLGSEEYDVPPRLSPPPPVTTLLPSIKCTGPLANSLSEKTRDPVEEDDDEYKIPSSHPVSLNSQPSHCHNVKPPVRSCDNGHCMLNGTHGPSSEKKSNIPDLSIYLKGDVFDSASDPVPLPPARPPTRDNPKHGSSLNRTPSDYDLLIPPLGEDAFDALPPSLPPPPPPARHSLIEHSKPPGSSSRPSSGQDLFLLPSDPFVDLASGQVPLPPARRLPGENVKTNRTSQDYDQLPSCSDGSQAPARPPKPRPRRTAPEIHHRKPHGPEAALENVDAKIAKLMGEGYAFEEVKRALEIAQNNVEVARSILREFAFPPPVSPRLNL
partner: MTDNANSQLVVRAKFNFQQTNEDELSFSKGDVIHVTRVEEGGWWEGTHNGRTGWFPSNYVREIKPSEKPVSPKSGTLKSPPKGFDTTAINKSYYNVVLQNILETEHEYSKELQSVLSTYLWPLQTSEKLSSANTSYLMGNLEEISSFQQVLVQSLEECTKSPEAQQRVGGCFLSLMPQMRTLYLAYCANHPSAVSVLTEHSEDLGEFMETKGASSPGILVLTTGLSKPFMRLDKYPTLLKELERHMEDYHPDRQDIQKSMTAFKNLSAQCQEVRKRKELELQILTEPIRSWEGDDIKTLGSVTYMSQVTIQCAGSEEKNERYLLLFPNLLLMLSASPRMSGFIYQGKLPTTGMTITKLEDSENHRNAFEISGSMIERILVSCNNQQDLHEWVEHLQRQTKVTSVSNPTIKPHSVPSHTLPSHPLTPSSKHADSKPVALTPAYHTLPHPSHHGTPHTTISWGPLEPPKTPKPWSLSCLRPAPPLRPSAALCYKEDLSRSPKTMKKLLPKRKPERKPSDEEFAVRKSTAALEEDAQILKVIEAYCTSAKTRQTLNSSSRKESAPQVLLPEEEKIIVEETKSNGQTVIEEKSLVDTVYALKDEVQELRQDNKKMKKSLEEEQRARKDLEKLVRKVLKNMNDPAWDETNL

This experiment covers variants of B1. As to conditions: with arhg7_rat Arhgef7, O55043.
On to R904A, for which the “effect of a mutation on the interaction” value is recorded as “decreasing interaction strength”.
